Literature values as cited in patent US7557183B2, “Polyethylene glycol linked GLP-1 compounds” (Eli Lilly and Company, priority 2003, dated 2009).

Settings: in vivo

## GLP-1(7-37): native truncated GLP-1 peptide, SEQ ID NO: 1
  serum half-life: 3 to 5 min
